# Test results as given in PMC4151697 (Biochemistry, 2014).
# Assays:
# SEC [1] = target: the molecule itself; experiment: SEC
# SEC [2] = target: the molecule itself; experiment: SEC; remark: listed apart in the source
# light scattering = target: the molecule itself; experiment: light scattering
Protein,pseudocritical concentration (SEC [1]) [µM],Kd (SEC [2]) [µM],amount of capsid relative to Cp149red (light scattering) [%],fold slower elongation rate constant than Cp149red (light scattering) [fold]
"Cp149-C61S (Cp149 with C61 mutated to serine) (domain or fragment, hepatitis B virus, UniProt P03147 1-149, looked up) MDIDPYKEFGATVELLSFLPSDFFPSVRDLLDTAAALYRDALESPEHCSPHHTALRQAILSWGDLMTLATWVGTNLEDPASRDLVVSYVNTNVGLKFRQLLWFHISCLTFGRETVLEYLVSFGVWIRTPPAYRPPNAPILSTLPETTVV",5.9,–,–,–
"Cp149red (reduced HBV core protein assembly domain, amino acids 1–149, homodimer) (domain or fragment, hepatitis B virus, UniProt P03147 1-149, looked up) MDIDPYKEFGATVELLSFLPSDFFPSVRDLLDTAAALYRDALESPEHCSPHHTALRQAILCWGDLMTLATWVGTNLEDPASRDLVVSYVNTNVGLKFRQLLWFHISCLTFGRETVLEYLVSFGVWIRTPPAYRPPNAPILSTLPETTVV",4.7,–,–,–
"Cp149re-red (partially re-reduced Cp149ox) (domain or fragment, hepatitis B virus, UniProt P03147 1-149, looked up, intradimer C61–C61 disulfide in most dimers (only ∼20% of Cp149ox could be reduced)) MDIDPYKEFGATVELLSFLPSDFFPSVRDLLDTAAALYRDALESPEHCSPHHTALRQAILCWGDLMTLATWVGTNLEDPASRDLVVSYVNTNVGLKFRQLLWFHISCLTFGRETVLEYLVSFGVWIRTPPAYRPPNAPILSTLPETTVV",6.5,–,–,–
"Cp149ox (fully oxidized Cp149 dimer with the intradimer C61–C61 disulfide) (domain or fragment, hepatitis B virus, UniProt P03147 1-149, looked up, intradimer C61–C61 disulfide (fully oxidized)) MDIDPYKEFGATVELLSFLPSDFFPSVRDLLDTAAALYRDALESPEHCSPHHTALRQAILCWGDLMTLATWVGTNLEDPASRDLVVSYVNTNVGLKFRQLLWFHISCLTFGRETVLEYLVSFGVWIRTPPAYRPPNAPILSTLPETTVV",–,4 ± 0.2,~40,1.7
